According to patent publication US20120172295A1 (INDIANA UNIVERSITY RESEARCH AND TECHNOLOGY, published 2012):
Read-outs that look alike come from different tables or passages of the source. Non-standard residues stand in square brackets, D forms with d. No end group written: not given here. *: point of attachment. Palmitoyl = CCCCCCCCCCCCCCCC(=O)*; Aib = CC(C)(N)C(=O)O

What was measured:
Assay in all cases: cell-based or functional assay
[1] = target: T1, glucagon receptor (UniProt P47871 26-477, limits assumed)
[2] = target: T2, GLP-1 receptor (UniProt P43220 24-463, limits assumed)
[3] = target: T1, glucagon receptor; remark: listed apart in the source
[4] = target: T1, glucagon receptor; remark: listed apart in the source
[5] = target: T2, GLP-1 receptor; remark: listed apart in the source
[6] = target: T1, glucagon receptor; remark: listed apart in the source
[7] = target: T2, GLP-1 receptor; remark: listed apart in the source
[8] = target: T1, glucagon receptor; remark: listed apart in the source
[9] = target: T2, GLP-1 receptor; remark: listed apart in the source
[10] = target: T1, glucagon receptor; remark: listed apart in the source
[11] = target: T2, GLP-1 receptor; remark: listed apart in the source
[12] = target: T1, glucagon receptor; remark: listed apart in the source
[13] = target: T2, GLP-1 receptor; remark: listed apart in the source
[14] = target: T1, glucagon receptor; remark: listed apart in the source
[15] = target: T2, GLP-1 receptor; remark: listed apart in the source
[16] = target: T1, glucagon receptor; remark: listed apart in the source
[17] = target: T2, GLP-1 receptor; remark: listed apart in the source

T1 sequence (P47871 26-477 limits assumed): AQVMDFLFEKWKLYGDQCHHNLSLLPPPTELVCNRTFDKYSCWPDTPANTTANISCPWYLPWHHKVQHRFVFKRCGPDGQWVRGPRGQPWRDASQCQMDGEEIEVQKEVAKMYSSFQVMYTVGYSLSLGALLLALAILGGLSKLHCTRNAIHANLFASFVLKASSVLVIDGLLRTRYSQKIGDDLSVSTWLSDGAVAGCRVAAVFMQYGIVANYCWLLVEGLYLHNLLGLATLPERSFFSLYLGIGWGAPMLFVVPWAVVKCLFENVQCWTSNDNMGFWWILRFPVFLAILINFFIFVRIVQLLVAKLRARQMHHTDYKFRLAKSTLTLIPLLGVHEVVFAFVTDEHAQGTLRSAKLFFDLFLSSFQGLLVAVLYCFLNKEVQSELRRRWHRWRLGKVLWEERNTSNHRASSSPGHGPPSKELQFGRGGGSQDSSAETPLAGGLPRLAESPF

B1: Glucagon (1-29a) Aib2 Aib16 (peptide)
peptide: H[Aib]QGTFTSDYSKYLD[Aib]RRAQDFVQWLMNT-NH2
modifications: N-terminus assumed
SMILES: CSCC[C@H](NC(=O)[C@H](CC(C)C)NC(=O)[C@H](Cc1c[nH]c2ccccc12)NC(=O)[C@H](CCC(N)=O)NC(=O)[C@@H](NC(=O)[C@H](Cc1ccccc1)NC(=O)[C@H](CC(=O)O)NC(=O)[C@H](CCC(N)=O)NC(=O)[C@H](C)NC(=O)[C@H](CCCNC(=N)N)NC(=O)[C@H](CCCNC(=N)N)NC(=O)C(C)(C)NC(=O)[C@H](CC(=O)O)NC(=O)[C@H](CC(C)C)NC(=O)[C@H](Cc1ccc(O)cc1)NC(=O)[C@H](CCCCN)NC(=O)[C@H](CO)NC(=O)[C@H](Cc1ccc(O)cc1)NC(=O)[C@H](CC(=O)O)NC(=O)[C@H](CO)NC(=O)[C@@H](NC(=O)[C@H](Cc1ccccc1)NC(=O)[C@@H](NC(=O)CNC(=O)[C@H](CCC(N)=O)NC(=O)C(C)(C)NC(=O)[C@@H](N)Cc1c[nH]cn1)[C@@H](C)O)[C@@H](C)O)C(C)C)C(=O)N[C@@H](CC(N)=O)C(=O)N[C@H](C(N)=O)[C@@H](C)O
[1]
  EC50: 0.09 nM
[2]
  EC50: 0.1 nM

B2: Peptide V (peptide)
peptide: HSEGTFTSDYSKYLDEQAAKEFIC(PEG 20 kDa)WLMNT-NH2
[3]
  glucagon agonism: > 10 fold

B3: AIB2, AIB16, K10(C16), K30 Glucagon Amide (peptide)
peptide: H[Aib]QGTFTSDK(Palmitoyl)SKYLD[Aib]RRAQDFVCWLMNTK-NH2
modifications: N-terminus assumed
SMILES: CCCCCCCCCCCCCCCC(=O)NCCCC[C@H](NC(=O)[C@H](CC(=O)O)NC(=O)[C@H](CO)NC(=O)[C@@H](NC(=O)[C@H](Cc1ccccc1)NC(=O)[C@@H](NC(=O)CNC(=O)[C@H](CCC(N)=O)NC(=O)C(C)(C)NC(=O)[C@@H](N)Cc1c[nH]cn1)[C@@H](C)O)[C@@H](C)O)C(=O)N[C@@H](CO)C(=O)N[C@@H](CCCCN)C(=O)N[C@@H](Cc1ccc(O)cc1)C(=O)N[C@@H](CC(C)C)C(=O)N[C@@H](CC(=O)O)C(=O)NC(C)(C)C(=O)N[C@@H](CCCNC(=N)N)C(=O)N[C@@H](CCCNC(=N)N)C(=O)N[C@@H](C)C(=O)N[C@@H](CCC(N)=O)C(=O)N[C@@H](CC(=O)O)C(=O)N[C@@H](Cc1ccccc1)C(=O)N[C@H](C(=O)N[C@@H](CS)C(=O)N[C@@H](Cc1c[nH]c2ccccc12)C(=O)N[C@@H](CC(C)C)C(=O)N[C@@H](CCSC)C(=O)N[C@@H](CC(N)=O)C(=O)N[C@H](C(=O)N[C@@H](CCCCN)C(N)=O)[C@@H](C)O)C(C)C
[4]
  EC50: 0.761 nM
  EC50 (20% human plasma): 0.313 nM
[5]
  EC50 (20% human plasma): 0.017 nM

B4: E3, E16 Gluc-NH2 (peptide)
peptide: HSEGTFTSDYSKYLDERRAQDFVQWLMNT-NH2
[6]
  Percent Potency Relative to Native Ligand: 1.6%
[7]
  Percent Potency Relative to Native Ligand: 28.8%

B5: E16 K20-glucagon-NH2 (peptide)
peptide: HSQGTFTSDYSKYLDERRAKDFVQWLMNT-NH2
[8]
  Percent Potency Relative to Native Ligand: 130%
[9]
  Percent Potency Relative to Native Ligand: 41.5%
[10]
  EC50: 0.18 nM
[11]
  EC50: 0.21 nM
[12]
  Percent Potency Relative to Native Ligand: 130%
[13]
  Percent Potency Relative to Native Ligand: 41.5%
[14]
  EC50: 0.18 nM
[15]
  EC50: 0.21 nM
[16]
  EC50: 0.203 nM
[17]
  EC50: 0.188 nM
